# Molecular target: MAGI2 PDZ0-GK (mouse) (UniProt Q9WVQ1)
# Test: ITC
# UniProt Q9WVQ1, sequence (Q9WVQ1 9-238): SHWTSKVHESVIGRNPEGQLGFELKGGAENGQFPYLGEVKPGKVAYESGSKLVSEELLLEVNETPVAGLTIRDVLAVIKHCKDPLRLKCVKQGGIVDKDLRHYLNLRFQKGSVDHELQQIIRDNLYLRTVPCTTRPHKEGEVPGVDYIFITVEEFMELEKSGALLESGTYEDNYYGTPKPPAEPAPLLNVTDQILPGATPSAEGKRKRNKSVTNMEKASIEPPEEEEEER
row,Kd [nM],Substance
1,70,pSAPAP1-GBR2(T+5F) (peptide)
2,70,pSAPAP1-GBR2(E-1P) (peptide)
